Biological target: T1, CD16 on human natural killer (NK) cells (human, UniProt P08637 17-254)
T1 construct: whole, on cells
Assay: flow cytometry on human NK cells, BiKE-containing supernatant, PE anti-V5 detection

T1 sequence (P08637 17-254): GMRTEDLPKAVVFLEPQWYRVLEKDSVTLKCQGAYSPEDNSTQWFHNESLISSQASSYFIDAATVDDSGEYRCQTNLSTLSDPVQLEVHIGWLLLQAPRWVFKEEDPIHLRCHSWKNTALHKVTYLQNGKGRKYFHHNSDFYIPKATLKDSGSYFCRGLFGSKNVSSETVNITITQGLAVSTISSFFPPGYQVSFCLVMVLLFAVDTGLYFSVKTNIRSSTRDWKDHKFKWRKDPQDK

B1: Bi-specific Natural Killer and Neutrophil engager (BiKE), CD138-CD16, secreted from MYXV-BiKE-infected cells, with C-terminal V5 tag (bispecific antibody)
chain: DIQMTQSTSSLSASLGDRVTISCSASQGINNYLNWYQQKPDGTVELLIYYTSTLQSGVPSRFSGSGSGTDYSLTISNLEPEDIGTYYCQQYSKLPRTFGGGTKLEIKGGGGSGGGGSGGGGSSQVQLQQSGSELMMPGASVKISCKATGYTFSNYWIEWVKQRPGHGLEWIGEILPGTGRTIYNEKFKGKATFTADISSNTVQMQLSSLTSEDSAVYYCARRDYYGNFYYAMDYWGQGTSVTVSSGGGGSGGGGSQVTLKESGPGILQPSQTLSLTCSFSGFSLRTSGMGVGWIRQPSGKGLEWLAHIWWDDDKRYNPALKSRLTISKDTSSNQVFLKIASVDTADTATYYCAQINPAWFAYWGQGTLVTVSAGGGGSGGGGSGGGGSDTVLTQSPASLAVSLGQRATISCKASQSVDFDGDSFMNWYQQKPGQPPKLLIYTTSNLESGIPARFSASGSGTDFTLNIHPVEEEDTATYYCQQSNEDPYTFGGGTKLEIKGKPIPNPLLGLDST
notes: Tested as secreted protein in supernatants of MYXV-BiKE-infected RK13 or Vero cells and detected through its V5 tag; Concentration was not determined; also called huBiKE; CD138-CD16 BiKE
binding result: binds

Source: patent US20240093158A1 (ARIZONA BOARD OF REGENTS ON BEHALF OF ARIZONA STATE …, published 2024)
